Laboratory results reported in paper PMC10035508.

Biological target: PTBP1 (hsPTBP1) (Homo sapiens) (UniProt P26599)
Experiment: EMSA
Conditions: EMSA in RBB: 10 mM sodium cacodylate pH 7.0, 100 mM NaCl, 1 mM MgCl2, 1 mM DTT, 0.1 ug/uL BSA, 0.1 ug/uL yeast tRNA, 0.4 U/uL RNasin, 1 U/uL heparin …

PTBP1 (hsPTBP1) (Homo sapiens), sequence (P26599 whole entry): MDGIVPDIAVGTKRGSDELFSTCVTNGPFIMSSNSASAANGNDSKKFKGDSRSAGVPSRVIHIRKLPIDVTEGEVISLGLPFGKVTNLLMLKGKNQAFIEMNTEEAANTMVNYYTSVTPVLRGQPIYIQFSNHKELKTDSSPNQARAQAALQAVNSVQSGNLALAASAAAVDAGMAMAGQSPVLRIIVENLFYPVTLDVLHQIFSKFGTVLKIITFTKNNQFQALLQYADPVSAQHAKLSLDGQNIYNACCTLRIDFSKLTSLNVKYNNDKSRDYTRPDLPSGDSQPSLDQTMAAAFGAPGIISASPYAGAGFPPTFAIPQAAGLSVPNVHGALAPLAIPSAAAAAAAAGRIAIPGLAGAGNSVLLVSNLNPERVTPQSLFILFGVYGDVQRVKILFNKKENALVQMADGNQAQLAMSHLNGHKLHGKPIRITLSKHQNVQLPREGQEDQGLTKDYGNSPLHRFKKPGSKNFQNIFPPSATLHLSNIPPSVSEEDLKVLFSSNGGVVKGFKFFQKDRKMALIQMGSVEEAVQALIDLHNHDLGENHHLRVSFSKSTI

Row | Sequence | binding
1 | GGGGUUCCUCCCCUCCAUCUUCCCACACCCAGUCACCAGCACUGUAUUUUCUGUCACCAAGACAAUGAUUUCUUGUUAUUGAGGCUGUUGCUUUUGUGGAUGUG [CPA1] | no binding
2 | GGGUCUCCUUUCAGCCUGCUUCAGGAAUGAGCUUGUGGAGCCCCGGAGAGAAACUCCAAAACAAUCUGACGUCUUCUUUAGACAUUCCAAGCCCCCAAACCGAUCAGUGUAC [FRAGT7] | no binding
